Laboratory results: patent US20190175730A1 (Five Prime, published 2019)

T1: human FGFR2IIIb expressed on Ba/F3 cells (human, UniProt P21802 22-821)
T1 chain: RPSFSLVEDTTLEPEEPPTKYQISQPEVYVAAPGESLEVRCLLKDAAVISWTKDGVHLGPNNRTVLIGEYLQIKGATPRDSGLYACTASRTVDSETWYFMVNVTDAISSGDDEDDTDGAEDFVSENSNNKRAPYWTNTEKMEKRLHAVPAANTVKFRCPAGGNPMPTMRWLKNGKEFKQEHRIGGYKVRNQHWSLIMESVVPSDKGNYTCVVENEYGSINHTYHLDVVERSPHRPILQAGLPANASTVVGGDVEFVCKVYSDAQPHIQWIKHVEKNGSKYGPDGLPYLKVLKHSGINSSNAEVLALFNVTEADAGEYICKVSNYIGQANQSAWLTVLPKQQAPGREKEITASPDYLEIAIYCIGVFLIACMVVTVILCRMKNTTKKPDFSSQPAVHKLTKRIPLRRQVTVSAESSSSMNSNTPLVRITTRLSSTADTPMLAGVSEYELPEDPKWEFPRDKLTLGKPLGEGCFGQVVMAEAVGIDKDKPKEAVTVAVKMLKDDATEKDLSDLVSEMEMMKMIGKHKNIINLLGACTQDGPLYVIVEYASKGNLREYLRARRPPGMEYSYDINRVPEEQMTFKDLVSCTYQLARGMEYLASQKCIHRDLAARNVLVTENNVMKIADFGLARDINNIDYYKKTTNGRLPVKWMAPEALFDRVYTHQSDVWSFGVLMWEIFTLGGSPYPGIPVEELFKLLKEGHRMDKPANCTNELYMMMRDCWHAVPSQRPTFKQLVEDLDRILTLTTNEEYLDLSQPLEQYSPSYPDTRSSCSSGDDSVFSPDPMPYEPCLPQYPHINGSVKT


Biological target: T1, human FGFR2IIIb expressed on Ba/F3 cells
Assay: cell-based or functional assay

| Binder | EC50 (ng/mL) of ADCC, LDH release |
| --- | --- |
| afucosylated monoclonal antibody αFGFR2bA (antibody, human IgG1, kappa, Asn297 glycan lacks fucose (afucosylated; produced in FUT8-lacking Potelligent CHOK1SV cells)) heavy: not shown light: DIQMTQSPSSLSASVGDRVTITCKASQGVSNDVAWYQQKPGKAPKLLIYSASYRYTGVPSRFSGSGSGTDFTFTISSLQPEDIATYYCQQHSTTPYTFGQGTKLEIKRTVAAPSVFIFPPSDEQLKSGTASVVCLLNNFYPREAKVQWKVDNALQSGNSQESVTEQDSKDSTYSLSSTLTLSKADYEKHKVYACEVTHQGLSSPVTKSFNRGEC | 2 ng/mL |
| fucosylated monoclonal antibody αFGFR2bF (antibody, human IgG1, kappa, Asn297 glycan contains fucose (fucosylated)) heavy: not shown light: DIQMTQSPSSLSASVGDRVTITCKASQGVSNDVAWYQQKPGKAPKLLIYSASYRYTGVPSRFSGSGSGTDFTFTISSLQPEDIATYYCQQHSTTPYTFGQGTKLEIKRTVAAPSVFIFPPSDEQLKSGTASVVCLLNNFYPREAKVQWKVDNALQSGNSQESVTEQDSKDSTYSLSSTLTLSKADYEKHKVYACEVTHQGLSSPVTKSFNRGEC | 16 ng/mL |
